Data on one molecule can be found in patent US8133978 (GlaxoSmithKline, dated 2012).

The target in assay [1] is T1, Human interleukin-18 (recombinant human IL-18) (human, UniProt Q14116 37-193).
T1 construct: also called hIL-18
T1 sequence: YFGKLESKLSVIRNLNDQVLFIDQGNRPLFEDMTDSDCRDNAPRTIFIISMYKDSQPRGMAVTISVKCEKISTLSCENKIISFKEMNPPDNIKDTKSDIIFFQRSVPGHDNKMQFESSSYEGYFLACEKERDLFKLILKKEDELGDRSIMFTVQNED
In words: SPR, Biacore T100, Protein A capture, 37 C, mean n = 6. As for the experimental part:
(§1) The methodology was basically the same as for the method used in Example 4a above; Protein A was immobilised on a CM5 chip at densities of between 2000-6000 RU's by primary amine coupling. Runs were carried out in HBS-EP (Biacore™). The anti-IL-18 antibodies were captured to densities of between 100-500 RUs, human IL-18 was passed over this captured surface at concentrations between 16-0.0625 nM, with 0 nM concentration (i.e., a buffer only injection of captured antibody) used for double referencing. Regeneration after each injection of IL-18 was by mild acidic elution using two injections of 10 mM glycine, pH1.5. […] The binding curves obtained were analysed using the analysis software inherent to the T100 machine using the 1:1 model of binding. Runs were carried out at the temperatures indicated.
These experiments were carried out as described above. Table 6 details the kinetic parameters obtained. […] H1L2 has a better on-rate (ka) than H1L1.
(In general: Surface plasmon resonance follows binding to a sensor surface in real time, without labels.)

The target in assay [2] is T2, Rhesus IL-18 (rhesus (rhesus/cynomolgus)).
T2 construct: also called Rhesus/Cynomolgus IL-18; rhesus/cynomolgus IL-18
In words: SPR, Biacore 3000, antibody captured on Protein A, 25 C. As for the experimental part:
Biacore™ kinetic analysis of the humanised 2C10 antibodies was carried out on a Biacore™ 3000 instrument using Protein A capture of the antibodies in HBS-EP buffer (Biacore™). Briefly, Protein A was immobilised on a CM5 chip by primary amine coupling, using manufacturers recommended protocol, to densities around 2000-4000 resonance units (RU's). Humanised antibody was then passed over the Protein A surface and captured to levels of around 200-500 RU's, after a period of stabilisation, IL-18 (human or Rhesus) was passed over the captured antibody surface at defined concentrations and binding sensorgrams were obtained. […] All curves were double referenced against a buffer injection instead of IL-18 and the data was fitted to the 1:1 binding model using the global fit parameters in BiaEval 4.1. Off-rate ranking experiments were set up using the same Protein A capture method, however, only a single concentration of IL-18 was used (10 nM). Whilst the data was fitted using the same binding model as the kinetic analysis, since only one concentration of analyte was used on the off-rate is reported, this value is useful for ranking rather than giving an exact kinetic measurement and was used as a way of selecting which antibodies would be further investigated.
Based upon these observations selected antibodies were investigated in greater detail for binding to human and Rhesus IL-18 at 37° C. The data shown in Table 4b for human IL-18 is the mean (and standard deviation) of six separate determinations.

Assay [3] addresses T1, Human interleukin-18 (recombinant human …). In words: SPR, Biacore T100, antibody captured on Protein A, 15 C.
The target is the same in assay [4]. In words: SPR, Biacore T100, antibody captured on Protein A, 20 C. As to the method:
as §1
This experiment was carried out using the above method at various temperatures. […] Table 5 details the kinetic values used to create these figures.

Assay [5] has the same target. In words: ELISA, human IL-18 captured by 16D10, antibody titrated. As to the method: ELISA with all nine humanised variants was carried out at least 6 times using various batches of purified antibody preparation. FIGS. 4A-4C show representative data from one experiment which generated the EC50 value ranking illustrated in Table 7. Human IL-18 was immobilized on Nunc Maxisorp 96-well plates using 2.5 µg/ml of 16D10 (non-neutralising mouse monoclonal antibody) to capture 5 ng/ml of recombinant human IL-18. Anti-IL-18 humanised antibodies were added at various dilutions. Bound humanised antibodies were detected using anti-human IgG Fc specific peroxidase conjugate (Sigma A0170).

Assay [6] has the same target. In words: ELISA, antibody on plate, human IL-18 captured, detected by 16D10; 37 C, blocking buffer. As to the method: (§2) ELISA was carried out with the three Humanised H1 variants; H1L1, H1L2 and H1L3 to assess binding to human IL-18 at room temperature and at 37° C. in both human serum and in block solution (PBS 0.05% TWEEN with 1% BSA (w/v)). The Humanised antibody variants were immobilised on Nunc Maxisorp 96-well plates at 2.5 µg/ml. Capture of 5 ng/ml of recombinant human IL-18 was carried out either at room temperature or 37° C. in human serum or block solution. Anti-IL-18 mouse monoclonal antibody 16D10 was added. The bound mouse antibody was detected using anti-mouse kappa peroxidase conjugate (Serotec MCA 1291P). Representative EC50 values generated from the study data are illustrated in Table 9.

Assay [7] shares this target. Put plainly: ELISA, antibody on plate, human IL-18 captured, detected by 16D10; room temperature, blocking buffer. As for the experimental part:
as §2
A general note: In an ELISA, binding on a coated surface is turned into a signal by an enzyme label.

The target is the same in assay [8]. Put plainly: ELISA, IL-18 bp-Fc coated at 0.5 ug/ml, human IL-18 added at 100 ng/ml, antibody titrated, detection anti-human kappa HRP, Abs 490 nm.

B1: H1L2 humanised anti-IL-18 antibody (antibody, human IgG1, kappa, V domains shown)
VH: QVQLVQSGAEVKKPGASVKVSCKVSGEISTGYYFHWVRQAPGKGLEWMGRIDPEDDSTKYAERFKDRVTMTEDTSTDTAYMELSSLRSEDTAVYYCTTWRIYRDSSGRPFYVMDAWGQGTLVTVSS
VL: DIQMTQSPSSVSASVGDRVTITCLASEDIYTYLTWYQQKPGKAPKLLIYGANKLQDGVPSRFSGSGSGTDYTLTISSLQPEDFATYYCLQGSKFPLTFGQGTKLEIKR
notes: Human IgG1 / kappa
With B1, the Kd – broadly, the constant that tells how readily two partners part at equilibrium – in assay [1] was 0.046 nM; in assay [2] it was 0.108 nM; in assay [3], 0.01 nM; in assay [4], 0.0089 nM. For the same molecule, the values for the EC50 in assay [5], in assay [6] and in assay [7] were 11 ng/mL, 3.4 ng/mL and 3.55 ng/mL, respectively. Moreover, the concentration giving a half-maximal response (EC50 (read off the curve)) (in general, the concentration at which the effect is half-maximal) in assay [8] was roughly 40 ng/mL.
